The assay deals with Tumor necrosis factor alpha (TNF-α) (Homo sapiens, UniProt P01375). Description: SPR. In general terms: In SPR one partner is held on a chip, and binding of the other changes the refractive index at the surface.
Chain of Tumor necrosis factor alpha (TNF-α) (P01375 whole entry): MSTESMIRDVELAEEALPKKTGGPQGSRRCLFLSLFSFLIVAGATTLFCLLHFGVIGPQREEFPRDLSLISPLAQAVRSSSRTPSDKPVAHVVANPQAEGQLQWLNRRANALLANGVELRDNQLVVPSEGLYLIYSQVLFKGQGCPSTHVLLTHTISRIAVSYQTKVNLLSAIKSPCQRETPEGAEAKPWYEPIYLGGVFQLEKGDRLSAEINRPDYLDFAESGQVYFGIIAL

B1: VHH2^E50V&T53W (VHH)
VHH: QVQLVESGGGLVQPGGSLRLSCAASGFTFSNYWMYWVRQAPGKGLEWVSVINWNGLITKYPDSVKGRFTISRDNAKNTLYLQMNSLKPEDTALYYCARSPSGFNRGQGTQVTVSS
Broadly, the Kd is the free concentration of one partner at which half of the binding sites on the other are occupied at equilibrium, for simple one-to-one binding. Low values mean tighter binding, high ones weaker binding. On to B1, for which the dissociation constant Kd amounted to 4.6 nM. This lies in the single-digit nanomolar range.

The values are drawn from paper PMC9822835 (Computational and Structural Biotechnology Journal, 2022).
